Test results taken from article PMC4353693.
pKd: −log10 of the molar value.

What was measured:
[1] = target: C-terminally CFP-tagged P1aABD (P1aABD-CFP); test: FRET or BRET
[2] = target: actin binding domain of plectin isoform 1a (P1aABD); test: ITC
P1aABDΔ22 = test: ITC

Substance	FRET efficiency [1]	pKd [2]	pKd (P1aABDΔ22)	KD calculated with the competitive binding model [2]	apparent KD in the presence of β4Fn12 (displacement) [2]
C-terminally yellow fluorescence protein (YFP)-tagged CaM (CaM-YFP) (from UniProt P0DP23 1-149) (natural protein)	19%				
N-ter lobe of calmodulin (CaMNL) (from UniProt P0DP23 10-74) (domain or fragment)		4.98			
calmodulin (CaM), full length, with Ca2+ (from UniProt P0DP23 1-149) (natural protein)		5.38	5.59	2.3 µM	7.7 µM
